In patent US20240239915A1:

Tests used:
Experiment in all cases: SPR (Biacore T200); receptor immobilized directly on CM5 chip, antibody as analyte at 4.7 µM
[1] = target: Recombinant Human Fc gamma RIIIA/CD16a protein (R&D Systems), His-tagged (human) (UniProt P08637)
[2] = target: Recombinant Human Fc gamma RIIB/C (CD32b/c) Protein (R&D Systems), His-tagged (human) (UniProt P31994)
[3] = target: Recombinant Human Fc gamma RIIA/CD32a (R167) Protein (R&D Systems), His-tagged (human) (UniProt P12318)
Chain of Recombinant Human Fc gamma RIIA/CD32a (R167) Protein (R&D Systems), His-tagged (human) (P12318 other isoform, or with tags, fused parts or gaps): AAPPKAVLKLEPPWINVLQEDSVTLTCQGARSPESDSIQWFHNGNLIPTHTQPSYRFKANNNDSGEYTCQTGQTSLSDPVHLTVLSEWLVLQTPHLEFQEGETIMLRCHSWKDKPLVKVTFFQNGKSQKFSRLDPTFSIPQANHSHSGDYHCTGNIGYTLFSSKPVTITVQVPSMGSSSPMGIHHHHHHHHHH

[4] = target: Recombinant Human Fc gamma RIIIB/CD16b Protein (R&D Systems), His-tagged (human) (UniProt O75015)
Chain of Recombinant Human Fc gamma RIIIB/CD16b Protein (R&D Systems), His-tagged (human) (O75015 other isoform, or with tags, fused parts or gaps): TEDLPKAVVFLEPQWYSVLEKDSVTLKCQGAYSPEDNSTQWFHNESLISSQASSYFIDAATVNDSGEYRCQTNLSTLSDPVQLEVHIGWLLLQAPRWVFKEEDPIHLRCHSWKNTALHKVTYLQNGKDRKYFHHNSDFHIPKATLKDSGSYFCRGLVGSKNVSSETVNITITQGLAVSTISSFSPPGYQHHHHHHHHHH

Chain of Recombinant Human Fc gamma RIIB/C (CD32b/c) Protein (R&D Systems), His-tagged (human) (P31994 other isoform, or with tags, fused parts or gaps): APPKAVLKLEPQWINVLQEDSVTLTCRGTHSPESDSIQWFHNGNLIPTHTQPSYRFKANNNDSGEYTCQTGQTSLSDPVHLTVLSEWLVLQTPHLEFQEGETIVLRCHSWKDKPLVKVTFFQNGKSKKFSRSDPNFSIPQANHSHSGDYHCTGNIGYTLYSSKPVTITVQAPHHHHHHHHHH
Chain of Recombinant Human Fc gamma RIIIA/CD16a protein (R&D Systems), His-tagged (human) (P08637 other isoform, or with tags, fused parts or gaps): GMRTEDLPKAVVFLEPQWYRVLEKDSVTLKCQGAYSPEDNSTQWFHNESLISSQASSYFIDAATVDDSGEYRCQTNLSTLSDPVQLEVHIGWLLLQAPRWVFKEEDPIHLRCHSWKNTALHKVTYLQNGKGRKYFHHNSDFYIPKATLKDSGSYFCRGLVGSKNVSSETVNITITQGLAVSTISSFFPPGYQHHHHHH

**Q.** How did the binding response (RU) [1] turn out when “LALA variant of the anti-CD70 antibody vorsetuzumab (IgG1)” was run?
**A.** 100 RU

**Q.** What about the binding response (RU) [2] of the same substance?
**A.** 18 RU

**Q.** What about the binding response (RU) [3] of the same substance?
**A.** 64 RU

**Q.** What about the binding response (RU) [4] of the same substance?
**A.** 4.5 RU

**Q.** How did the binding response (RU) [3] turn out when “LALA-DG variant of the anti-CD70 antibody vorsetuzumab (IgG1)” was run?
**A.** 8.3 RU
